Data: PMC10290082, “Tau protein binds to the P53 E3 ubiquitin ligase MDM2” (Scientific Reports, 2023)

Molecular target: T1, recombinant human MDM2 (human, UniProt Q00987 1-491)
T1 construct: E3 ubiquitin-protein ligase MDM2, human; source: bought: Biotechne (E3-204-050)
Assay: pull-down; purified recombinant proteins (15 ng), alone or together, on beads coupled to the pDIQ peptide; uncoupled beads as control; western blot
Conditions: both partners purified

T1 sequence (Q00987 whole entry): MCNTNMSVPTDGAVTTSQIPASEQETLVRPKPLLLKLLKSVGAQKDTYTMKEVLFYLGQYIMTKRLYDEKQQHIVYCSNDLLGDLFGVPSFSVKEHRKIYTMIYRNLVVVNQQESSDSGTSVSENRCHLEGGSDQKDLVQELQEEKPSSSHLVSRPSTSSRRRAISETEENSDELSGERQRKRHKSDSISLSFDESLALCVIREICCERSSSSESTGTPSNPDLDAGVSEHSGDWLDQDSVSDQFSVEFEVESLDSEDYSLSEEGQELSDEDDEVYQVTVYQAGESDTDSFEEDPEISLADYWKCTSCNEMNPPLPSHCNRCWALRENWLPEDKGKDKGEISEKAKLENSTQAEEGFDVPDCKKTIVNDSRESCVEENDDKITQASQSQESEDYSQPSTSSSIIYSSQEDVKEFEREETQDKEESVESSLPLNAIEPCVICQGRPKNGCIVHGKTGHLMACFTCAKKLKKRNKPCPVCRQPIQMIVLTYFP

binding result: binds
Binder: ETFEHWWSQLLSGGC [pDIQ peptide]
